Measured values reported in patent US20210221899A1 (published 2021).

Assays:
Test in all cases: SPR (Biacore T200), 100 nM mAb on NGF chip, similarity to parent mAb
[1] = biological target: T1, canine NGF (canine, UniProt Q29074 110-229 (pig entry), limits assumed)
T1 construct: The protein was secreted from CHO cells and purified; also called cNGF; canine β-NGF
T1 chain: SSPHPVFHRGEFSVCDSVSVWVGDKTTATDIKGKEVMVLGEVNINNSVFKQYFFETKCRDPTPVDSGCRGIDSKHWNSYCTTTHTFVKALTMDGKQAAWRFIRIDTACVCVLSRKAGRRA
Excerpt: (§1) The region of an antibody responsible for antigen recognition represents the paratope. A paratope is created by a combination of amino acids in the complementarity determining regions (CDRs) of both the heavy and light chain variable regions. The binding between antibody and antigen is often mediated by side chains of CDR residues with side chains or carbohydrate moieties of the antigen. To help define critical side chains involved in antibody recognition alanine scanning mutagenesis was performed on each CDR residue in both the heavy and light chain, the technique as described by Cunningham and Wells (1989) Science, Vol. 244, Issue 4908, pp. 1081-1085. These mutants were then individually tested for the ability to NGF using the Biacore. […] Values were then compared to the wild type antibodies and are represented in the tables as a percent of wild type binding. The data presented in Tables 4 and 5 below are shown as a “percent similarity score” compared to wild type.
(§2) The mean response unit of four replicates of the parent mAb+/−3 standard deviations was used to generate parameters to define a threshold of response units comprising both the on- and off-rates antibody binding. The percentage of data points for each mutant fell within this threshold was then used to define a “% similarity score”. […] Results from substitution of alanine at each CDR position

[2] = biological target: T2, human NGF (human, UniProt P01138 122-241)
T2 construct: also called human Nerve Growth Factor; hN
T2 chain: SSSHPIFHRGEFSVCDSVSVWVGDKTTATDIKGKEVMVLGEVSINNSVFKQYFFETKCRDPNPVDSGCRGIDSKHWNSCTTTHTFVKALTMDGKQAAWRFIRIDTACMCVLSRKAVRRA
Excerpt: as §1, §2

[3] = biological target: T3, rat NGF (rat, UniProt P25427 122-241)
T3 construct: also called rN
Excerpt: as §1, §2

T3 sequence (P25427 122-241 limits assumed): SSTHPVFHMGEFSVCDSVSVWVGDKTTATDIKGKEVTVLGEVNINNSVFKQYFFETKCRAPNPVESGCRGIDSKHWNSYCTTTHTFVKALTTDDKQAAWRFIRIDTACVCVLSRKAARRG

Binder | Percent Similarity Score (KD on cN) [1] | Percent Similarity Score (KD on hN) [2] | Percent Similarity Score (KD on rN) [3]
can9L12VH_H111A (antibody, V domains shown) VH: EVQLVESGGDLVKPGGSLRLSCVASGFTFSSHGMHWVRQSPGKGLQWVAVINSGGSSTYYTDAVKGRFTISRDNAKNTVYLQMNSLRAEDTAMYYCAKESVGGWEQLVGPAFDYWGQGTLVIVSS VL: QSVLTQPTSVSGSLGQRVTISCSGSTNNIGILGASWYQLFPGKAPKLLVYGNGNRPSGVPDRFSGADSGDSVTLTITGLQAEDEADYYCQSFDTTLGAHVFGGGTHLTVL | 10.1% | 2.79% | 3.25%
can9L12VH_L107A (antibody, V domains shown) VH: EVQLVESGGDLVKPGGSLRLSCVASGFTFSSHGMHWVRQSPGKGLQWVAVINSGGSSTYYTDAVKGRFTISRDNAKNTVYLQMNSLRAEDTAMYYCAKESVGGWEQAVGPHFDYWGQGTLVIVSS VL: QSVLTQPTSVSGSLGQRVTISCSGSTNNIGILGASWYQLFPGKAPKLLVYGNGNRPSGVPDRFSGADSGDSVTLTITGLQAEDEADYYCQSFDTTLGAHVFGGGTHLTVL | 5.45% | 1.82% | 2%
can9L12VH_S100A (antibody, V domains shown) VH: EVQLVESGGDLVKPGGSLRLSCVASGFTFSSHGMHWVRQSPGKGLQWVAVINSGGSSTYYTDAVKGRFTISRDNAKNTVYLQMNSLRAEDTAMYYCAKEAVGGWEQLVGPHFDYWGQGTLVIVSS VL: QSVLTQPTSVSGSLGQRVTISCSGSTNNIGILGASWYQLFPGKAPKLLVYGNGNRPSGVPDRFSGADSGDSVTLTITGLQAEDEADYYCQSFDTTLGAHVFGGGTHLTVL | 76.2% | 42.1% | 51.6%
can9L12VH_K98A (antibody, V domains shown) VH: EVQLVESGGDLVKPGGSLRLSCVASGFTFSSHGMHWVRQSPGKGLQWVAVINSGGSSTYYTDAVKGRFTISRDNAKNTVYLQMNSLRAEDTAMYYCAAESVGGWEQLVGPHFDYWGQGTLVIVSS VL: QSVLTQPTSVSGSLGQRVTISCSGSTNNIGILGASWYQLFPGKAPKLLVYGNGNRPSGVPDRFSGADSGDSVTLTITGLQAEDEADYYCQSFDTTLGAHVFGGGTHLTVL | 22.8% | 8.58% | 7.92%
can9L12VH_S57A (antibody, V domains shown) VH: EVQLVESGGDLVKPGGSLRLSCVASGFTFSSHGMHWVRQSPGKGLQWVAVINSGGSATYYTDAVKGRFTISRDNAKNTVYLQMNSLRAEDTAMYYCAKESVGGWEQLVGPHFDYWGQGTLVIVSS VL: QSVLTQPTSVSGSLGQRVTISCSGSTNNIGILGASWYQLFPGKAPKLLVYGNGNRPSGVPDRFSGADSGDSVTLTITGLQAEDEADYYCQSFDTTLGAHVFGGGTHLTVL | 89.9% | 33.4% | 100%
can9L12VH_S31A (antibody, V domains shown) VH: EVQLVESGGDLVKPGGSLRLSCVASGFTFSAHGMHWVRQSPGKGLQWVAVINSGGSSTYYTDAVKGRFTISRDNAKNTVYLQMNSLRAEDTAMYYCAKESVGGWEQLVGPHFDYWGQGTLVIVSS VL: QSVLTQPTSVSGSLGQRVTISCSGSTNNIGILGASWYQLFPGKAPKLLVYGNGNRPSGVPDRFSGADSGDSVTLTITGLQAEDEADYYCQSFDTTLGAHVFGGGTHLTVL | 100% | 99.9% | 100%
can9L12VH_T28A (antibody, V domains shown) VH: EVQLVESGGDLVKPGGSLRLSCVASGFAFSSHGMHWVRQSPGKGLQWVAVINSGGSSTYYTDAVKGRFTISRDNAKNTVYLQMNSLRAEDTAMYYCAKESVGGWEQLVGPHFDYWGQGTLVIVSS VL: QSVLTQPTSVSGSLGQRVTISCSGSTNNIGILGASWYQLFPGKAPKLLVYGNGNRPSGVPDRFSGADSGDSVTLTITGLQAEDEADYYCQSFDTTLGAHVFGGGTHLTVL | 100% | 96.6% | 100%
can9L12VH_T58A (antibody, V domains shown) VH: EVQLVESGGDLVKPGGSLRLSCVASGFTFSSHGMHWVRQSPGKGLQWVAVINSGGSSAYYTDAVKGRFTISRDNAKNTVYLQMNSLRAEDTAMYYCAKESVGGWEQLVGPHFDYWGQGTLVIVSS VL: QSVLTQPTSVSGSLGQRVTISCSGSTNNIGILGASWYQLFPGKAPKLLVYGNGNRPSGVPDRFSGADSGDSVTLTITGLQAEDEADYYCQSFDTTLGAHVFGGGTHLTVL | 100% | 100% | 99.9%
can9L12VH_P110A (antibody, V domains shown) VH: EVQLVESGGDLVKPGGSLRLSCVASGFTFSSHGMHWVRQSPGKGLQWVAVINSGGSSTYYTDAVKGRFTISRDNAKNTVYLQMNSLRAEDTAMYYCAKESVGGWEQLVGAHFDYWGQGTLVIVSS VL: QSVLTQPTSVSGSLGQRVTISCSGSTNNIGILGASWYQLFPGKAPKLLVYGNGNRPSGVPDRFSGADSGDSVTLTITGLQAEDEADYYCQSFDTTLGAHVFGGGTHLTVL | 6.48% | 2.1% | 2.6%
can9L12VH_Q106A (antibody, V domains shown) VH: EVQLVESGGDLVKPGGSLRLSCVASGFTFSSHGMHWVRQSPGKGLQWVAVINSGGSSTYYTDAVKGRFTISRDNAKNTVYLQMNSLRAEDTAMYYCAKESVGGWEALVGPHFDYWGQGTLVIVSS VL: QSVLTQPTSVSGSLGQRVTISCSGSTNNIGILGASWYQLFPGKAPKLLVYGNGNRPSGVPDRFSGADSGDSVTLTITGLQAEDEADYYCQSFDTTLGAHVFGGGTHLTVL | 100% | 100% | 99.9%
can9L12VH_S56A (antibody, V domains shown) VH: EVQLVESGGDLVKPGGSLRLSCVASGFTFSSHGMHWVRQSPGKGLQWVAVINSGGASTYYTDAVKGRFTISRDNAKNTVYLQMNSLRAEDTAMYYCAKESVGGWEQLVGPHFDYWGQGTLVIVSS VL: QSVLTQPTSVSGSLGQRVTISCSGSTNNIGILGASWYQLFPGKAPKLLVYGNGNRPSGVPDRFSGADSGDSVTLTITGLQAEDEADYYCQSFDTTLGAHVFGGGTHLTVL | 96.8% | 40.5% | 96%
can9L12VH_S53A (antibody, V domains shown) VH: EVQLVESGGDLVKPGGSLRLSCVASGFTFSSHGMHWVRQSPGKGLQWVAVINAGGSSTYYTDAVKGRFTISRDNAKNTVYLQMNSLRAEDTAMYYCAKESVGGWEQLVGPHFDYWGQGTLVIVSS VL: QSVLTQPTSVSGSLGQRVTISCSGSTNNIGILGASWYQLFPGKAPKLLVYGNGNRPSGVPDRFSGADSGDSVTLTITGLQAEDEADYYCQSFDTTLGAHVFGGGTHLTVL | 100% | 100% | 99.9%
can9L12VH_S30A (antibody, V domains shown) VH: EVQLVESGGDLVKPGGSLRLSCVASGFTFASHGMHWVRQSPGKGLQWVAVINSGGSSTYYTDAVKGRFTISRDNAKNTVYLQMNSLRAEDTAMYYCAKESVGGWEQLVGPHFDYWGQGTLVIVSS VL: QSVLTQPTSVSGSLGQRVTISCSGSTNNIGILGASWYQLFPGKAPKLLVYGNGNRPSGVPDRFSGADSGDSVTLTITGLQAEDEADYYCQSFDTTLGAHVFGGGTHLTVL | 94.7% | 31.2% | 99.9%
can9L12VH_N52A (antibody, V domains shown) VH: EVQLVESGGDLVKPGGSLRLSCVASGFTFSSHGMHWVRQSPGKGLQWVAVIASGGSSTYYTDAVKGRFTISRDNAKNTVYLQMNSLRAEDTAMYYCAKESVGGWEQLVGPHFDYWGQGTLVIVSS VL: QSVLTQPTSVSGSLGQRVTISCSGSTNNIGILGASWYQLFPGKAPKLLVYGNGNRPSGVPDRFSGADSGDSVTLTITGLQAEDEADYYCQSFDTTLGAHVFGGGTHLTVL | 85.8% | 38.2% | 19.7%
can9L12VH_V101A (antibody, V domains shown) VH: EVQLVESGGDLVKPGGSLRLSCVASGFTFSSHGMHWVRQSPGKGLQWVAVINSGGSSTYYTDAVKGRFTISRDNAKNTVYLQMNSLRAEDTAMYYCAKESAGGWEQLVGPHFDYWGQGTLVIVSS VL: QSVLTQPTSVSGSLGQRVTISCSGSTNNIGILGASWYQLFPGKAPKLLVYGNGNRPSGVPDRFSGADSGDSVTLTITGLQAEDEADYYCQSFDTTLGAHVFGGGTHLTVL | 13.6% | 5.29% | 4.27%
